From PMC1559926

What was measured:
Caveolin-1 135-178 = Caveolin-1 135-178 (UniProt Q03135); assay: given as Ka
Caveolin-1 61-101 = Caveolin-1 61-101 (UniProt Q03135); assay: given as Ka
Chain of Caveolin-1 61-101 (Q03135 61-101): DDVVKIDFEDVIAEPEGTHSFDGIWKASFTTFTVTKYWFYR

Chain of PrP, P04925 (P04925 23-230): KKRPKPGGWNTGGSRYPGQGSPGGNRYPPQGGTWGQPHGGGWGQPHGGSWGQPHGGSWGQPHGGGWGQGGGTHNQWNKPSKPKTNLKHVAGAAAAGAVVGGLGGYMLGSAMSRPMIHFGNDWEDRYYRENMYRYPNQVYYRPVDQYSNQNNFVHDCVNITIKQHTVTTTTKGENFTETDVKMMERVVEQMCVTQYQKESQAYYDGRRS
Chain of Caveolin-1 135-178 (Q03135 135-178): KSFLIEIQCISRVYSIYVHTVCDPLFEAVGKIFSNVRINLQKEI

PrP, P04925
Kd (Caveolin-1 135-178): 1.18 nM | Kd (Caveolin-1 61-101): 1.18 nM
